B1: SERPINB5 (parent)
chain: FPESETKECPFRVNKVCGAACSSK
B2: TRIM43 (parent)
chain: YQEIFQQLQRSWVKMDQKSKHLKE

Variants of: B1
Assay: protein stability index of a GFP-peptide fusion (GPS, HEK-293T) (PSI 1-6); higher = more stable
Conditions: c terminus: a fixed tail appended
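Note: lentivirally expressed fusions sorted by FACS into six bins by GFP to DsRed ratio, PSI derived from sequencing read proportions per bin multiplied by bin number.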

Protein stability index: each site, then its substitutions
V16: H 2.17, P 2.11
K24: R 2.05, A 2.42
E3: V 1.99, I 1.86, A 1.42
C17: Y 2.51, E 2.98, H 2.45
E5: V 2.52, K 1.67, I 1.8
S22: H 2.55
F11: Q 5.04
C21: A 2.76, P 2.23
T6: E 3.47, V 3.18
S4: W 2.03, A 2.46
S23: H 3.33, K 2.97
A20: S 2.29, M 2.01
V13: Q 4.03, S 3.66
P10: G 4.1, S 3.96
F1: I 4.67, T 2.73, L 4.93, A 4.46
R12: I 2.57, E 4.59, L 2.68
K7: Y 1.97, T 3.1, W 1.34
E8: K 3.04, W 1.66, V 2.59
N14: A 2.2
K15: C 3.04, T 2.48
P2: N 3.63
G18: V 1.75, S 3.42

Variants of: B2
Assay: as above
Conditions: c terminus: a fixed tail appended

Protein stability index: each site, then its substitutions
K14: E 2.92, V 2.18, Y 2.2, F 2.35, N 2.99, R 1.94, A 2.1, Q 2.36, H 2.04, I 1.86, D 2.77, G 2.6, M 2.37, P 2.19, L 2.44, W 2.61, C 1.97, S 2.1, T 2.25
W12: S 2.55, V 2.69, P 3.48, D 2.78, E 3.16, Y 2.18, M 2.42, T 2.88, I 2.29, R 3.12, Q 2.65, K 2.7, L 2.4, A 3.07, H 2.5, C 2.34, G 2.84, N 2.81, F 2.57
D16: E 2.13, A 3.13
S11: N 2.73, P 2.3, I 2.57, M 1.93, E 1.75, D 2.68, K 1.93, C 1.97, W 1.56, V 1.63, Y 2.65, R 1.82, Q 1.8, A 1.34, H 2.18, L 2.21, G 2.1, T 1.81
F5: D 4.05, N 3.47, K 3.17, M 2.22, V 2.82, E 4.52, L 2.65, S 3.39, W 2.19, I 1.7, Q 3.7, H 3.65, A 2.94, C 2.69, G 3.31, Y 2.57, T 3.29, P 2.79, R 3.15
R10: N 2.84, H 2.27, Y 1.79, W 1.89, V 2.26, A 2.74, G 3.03, L 2.4, I 2.95, P 2.55, E 2.66, T 1.94, C 1.96, K 2.12, F 1.78, D 2.99, S 2.71, M 2.57, Q 2.35
E3: T 1.52, D 2.18, Q 1.63, S 2.11, K 1.76, I 2.29, G 1.35, Y 2.39, C 2.13, F 1.53, L 1.79, M 2.13, V 1.93, W 1.68, N 1.58, H 2.47, A 2.23, P 1.69, R 3.7
Y1: A 1.86, M 1.99, W 3.04, L 1.5, C 1.56, F 1.58, I 2.04, Q 3.35, P 3.04, S 3.7, E 4.08, T 2.88, G 3.82, H 3.7, D 4.53, N 3.73, V 1.29, K 3.46, R 2.96
M15: T 2.53, R 2.5, K 2.61, L 2, D 2.54, N 2.59, G 2.35, A 2.37, S 2.46, I 1.62, W 1.48, H 2.29, V 2.13, P 3.15, Q 2.3, Y 2.05, C 2.32, F 1.99, E 2.87
Q2: S 1.22, I 1.52, R 1.56, D 2.64, V 1.72, L 1.67, E 3.44, P 2.15, G 1.66, Y 1.72, C 2.36, M 1.82, W 2.3, A 1.84, F 1.55, K 2.19, H 1.58, T 2.18, N 2.14
Q6: N 2.21, A 2.04, R 2.63, T 2.8, F 1.93, S 2.19, G 2.52, I 2.27, L 1.55, V 1.85, Y 2.65, C 2.07, M 2.49, K 1.85, H 2.17, P 2.28, W 2.03, D 2.74, E 2.95
I4: Q 1.85, C 1.44, K 1.87, G 1.01, P 1.93, S 1.94, D 1.47, N 1.61, H 1.85, R 2.05, L 2.19, W 2.94, A 1.98, T 1.96, V 2.16, Y 1.5, M 1.51, F 1.8, E 1.78
V13: M 1.9, T 2.08, N 2.22, C 2.02, E 3.48, W 1.16, Y 2.21, R 1.53, H 2.48, A 2.04, S 2.38, I 2.14, P 2.62, F 2.07, L 1.92, Q 2.2, G 2.79, K 2.3, D 2.54
Q9: G 2.59, I 1.71, M 2.32, F 2.23, R 3.11, A 1.83, S 2.58, K 1.88, C 1.4, P 2.73, E 2.72, V 1.88, H 1.95, W 2.39, D 2.6, N 2.25, L 1.83, Y 2.67, T 2.19
L8: C 2.44, H 3.06, G 2.74, N 2.87, I 1.97, R 3.03, P 2.06, K 3.1, Q 2.88, W 2.85, E 3.06, M 2.66, Y 2.66, V 2.09, F 2.62, S 2.58, T 3.24, A 2.78, D 2.71
Q7: V 1.65, C 1.94, P 2.28, N 2.23, R 1.66, T 1.82, A 1.87, H 2.42, F 1.52, I 2.08, L 2.11, E 2.52, Y 2.53, G 2.59, M 2.13, S 2.89, K 1.61, D 2.79, W 3.41

Source: the supplement of paper PMC10567573
